Experimental data from publication PMC11251522, “Transcription factors ERα and Sox2 have differing multiphasic DNA- and RNA-binding mechanisms”.

Experiments:
Sox2 HMG [1] = target: T1, Sox2 HMG (human, UniProt P48431 40-123); test: fluorescence anisotropy; apparent; Hill n 0.68; FP at 4°C; ERα: 20 mM Tris pH 7.5 (at 25°C), 100 mM NaCl, 5% glycerol, 0.01% IGEPAL; Sox2: 10 mM Tris pH 7.5 (at 25°C), 135 mM KCl, 15 mM NaCl, 0.1 mg/mL BSA, 4% Ficoll, 0.05% NP-40, 1 mM DTT; SPR: ERα buffer, 25°C; settings: protein: recombinant; tags: N-terminal His8-MBP, 3C-cleaved
T1 sequence (P48431 40-123): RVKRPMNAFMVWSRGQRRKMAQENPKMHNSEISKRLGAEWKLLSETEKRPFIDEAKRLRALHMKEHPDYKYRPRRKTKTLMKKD

Sox2 HMG [2] = target: T1, Sox2 HMG; test: fluorescence anisotropy; second (low-affinity) transition; FP at 4°C; ERα: 20 mM Tris pH 7.5 (at 25°C), 100 mM NaCl, 5% glycerol, 0.01% IGEPAL; Sox2: 10 mM Tris pH 7.5 (at 25°C), 135 mM KCl, 15 mM NaCl, 0.1 mg/mL BSA, 4% Ficoll, 0.05% NP-40, 1 mM DTT; SPR: ERα buffer, 25°C; settings: protein: recombinant; tags: N-terminal His8-MBP, 3C-cleaved; G-quadruplex
Sox2 HMG [3] = target: T1, Sox2 HMG; test: fluorescence anisotropy; printed ≤1; first (high-affinity) transition, 44% of signal; FP at 4°C; ERα: 20 mM Tris pH 7.5 (at 25°C), 100 mM NaCl, 5% glycerol, 0.01% IGEPAL; Sox2: 10 mM Tris pH 7.5 (at 25°C), 135 mM KCl, 15 mM NaCl, 0.1 mg/mL BSA, 4% Ficoll, 0.05% NP-40, 1 mM DTT; SPR: ERα buffer, 25°C; settings: protein: recombinant; tags: N-terminal His8-MBP, 3C-cleaved; G-quadruplex

Binder	Kd (Sox2 HMG [1]) [nM]	Kd (Sox2 HMG [2]) [nM]	Kd (Sox2 HMG [3]) [nM]
AAAAAAAAAAAAAAAAAAAA (ssRNA) [poly(A) RNA (rA20)]	40 ± 13	–	–
GGGAAGGGAAGGGAAGGGAA (structured_RNA) [G4 RNA (rG4), (G3A2)4]	–	110 ± 32	< 1
